Assay results published in the supplement of paper PMC10567573.

B1: C1orf137 (parent)
chain: LPQETNLTLKVCKPQAPQKLDPTL

Variants of: B1
Experiment: protein stability index of a GFP-peptide fusion (GPS, HEK-293T) (PSI 1-6); higher = more stable
Conditions: c terminus: a fixed tail appended
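Further: lentivirally expressed fusions sorted by FACS into six bins by GFP to DsRed ratio, PSI derived from sequencing read proportions per bin multiplied by bin number.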

| Variant | protein stability index |
| --- | --- |
| LPQDTNLTLKVCKPQAPQKLDPTL [E4D] | 3.7 |
| LPQQTNLTLKVCKPQAPQKLDPTL [E4Q] | 3.74 |
| LPQCTNLTLKVCKPQAPQKLDPTL [E4C] | 2.37 |
| LPQITNLTLKVCKPQAPQKLDPTL [E4I] | 2.51 |
| LPQWTNLTLKVCKPQAPQKLDPTL [E4W] | 2.32 |
| LPQSTNLTLKVCKPQAPQKLDPTL [E4S] | 3.12 |
| LPQKTNLTLKVCKPQAPQKLDPTL [E4K] | 3.46 |
| LPQYTNLTLKVCKPQAPQKLDPTL [E4Y] | 2.98 |
| LPQLTNLTLKVCKPQAPQKLDPTL [E4L] | 2.6 |
| LPQHTNLTLKVCKPQAPQKLDPTL [E4H] | 3.08 |
| LPQGTNLTLKVCKPQAPQKLDPTL [E4G] | 3.36 |
| LPQFTNLTLKVCKPQAPQKLDPTL [E4F] | 2.44 |
| LPQTTNLTLKVCKPQAPQKLDPTL [E4T] | 3.59 |
| LPQVTNLTLKVCKPQAPQKLDPTL [E4V] | 3.03 |
| LPQPTNLTLKVCKPQAPQKLDPTL [E4P] | 4.22 |
| LPQNTNLTLKVCKPQAPQKLDPTL [E4N] | 3.94 |
| LPQRTNLTLKVCKPQAPQKLDPTL [E4R] | 2.64 |
| LPQMTNLTLKVCKPQAPQKLDPTL [E4M] | 2.82 |
| LPQATNLTLKVCKPQAPQKLDPTL [E4A] | 3.77 |
| LPYETNLTLKVCKPQAPQKLDPTL [Q3Y] | 3.34 |
| LPGETNLTLKVCKPQAPQKLDPTL [Q3G] | 3.63 |
| LPKETNLTLKVCKPQAPQKLDPTL [Q3K] | 3.96 |
| LPHETNLTLKVCKPQAPQKLDPTL [Q3H] | 3.6 |
| LPIETNLTLKVCKPQAPQKLDPTL [Q3I] | 3.1 |

| Variant | protein stability index |
| --- | --- |
| LPWETNLTLKVCKPQAPQKLDPTL [Q3W] | 2.54 |
| LPTETNLTLKVCKPQAPQKLDPTL [Q3T] | 4.17 |
| LPVETNLTLKVCKPQAPQKLDPTL [Q3V] | 3.73 |
| LPDETNLTLKVCKPQAPQKLDPTL [Q3D] | 4.33 |
| LPNETNLTLKVCKPQAPQKLDPTL [Q3N] | 3.53 |
| LPPETNLTLKVCKPQAPQKLDPTL [Q3P] | 3.79 |
| LPCETNLTLKVCKPQAPQKLDPTL [Q3C] | 4.12 |
| LPAETNLTLKVCKPQAPQKLDPTL [Q3A] | 4.3 |
| LPLETNLTLKVCKPQAPQKLDPTL [Q3L] | 3.58 |
| LPFETNLTLKVCKPQAPQKLDPTL [Q3F] | 3.08 |
| LPEETNLTLKVCKPQAPQKLDPTL [Q3E] | 4.59 |
| LPMETNLTLKVCKPQAPQKLDPTL [Q3M] | 3.6 |
| LPSETNLTLKVCKPQAPQKLDPTL [Q3S] | 3.8 |
| LPRETNLTLKVCKPQAPQKLDPTL [Q3R] | 3.29 |
| LPQETNLMLKVCKPQAPQKLDPTL [T8M] | 3.69 |
| LPQETNLILKVCKPQAPQKLDPTL [T8I] | 2.37 |
| LPQETNLVLKVCKPQAPQKLDPTL [T8V] | 2.92 |
| LPQETNLHLKVCKPQAPQKLDPTL [T8H] | 3.88 |
| LPQETNLNLKVCKPQAPQKLDPTL [T8N] | 4.11 |
| LPQETNLKLKVCKPQAPQKLDPTL [T8K] | 3.57 |
| LPQETNLELKVCKPQAPQKLDPTL [T8E] | 4.14 |
| LPQETNLGLKVCKPQAPQKLDPTL [T8G] | 4.55 |
| LPQETNLLLKVCKPQAPQKLDPTL [T8L] | 3.95 |
| LPQETNLFLKVCKPQAPQKLDPTL [T8F] | 2.9 |

| Variant | protein stability index |
| --- | --- |
| LPQETNLSLKVCKPQAPQKLDPTL [T8S] | 4.3 |
| LPQETNLYLKVCKPQAPQKLDPTL [T8Y] | 2.98 |
| LPQETNLALKVCKPQAPQKLDPTL [T8A] | 4.3 |
| LPQETNLRLKVCKPQAPQKLDPTL [T8R] | 3.57 |
| LPQETNLCLKVCKPQAPQKLDPTL [T8C] | 4.15 |
| LPQETNLDLKVCKPQAPQKLDPTL [T8D] | 3.21 |
| LPQETNLPLKVCKPQAPQKLDPTL [T8P] | 4.53 |
| LPQETNLQLKVCKPQAPQKLDPTL [T8Q] | 4.21 |
| LPQETNLWLKVCKPQAPQKLDPTL [T8W] | 2.64 |
| LIQETNLTLKVCKPQAPQKLDPTL [P2I] | 3.49 |
| LTQETNLTLKVCKPQAPQKLDPTL [P2T] | 3.92 |
| LEQETNLTLKVCKPQAPQKLDPTL [P2E] | 4.18 |
| LSQETNLTLKVCKPQAPQKLDPTL [P2S] | 2.8 |
| LGQETNLTLKVCKPQAPQKLDPTL [P2G] | 3.79 |
| LVQETNLTLKVCKPQAPQKLDPTL [P2V] | 3.13 |
| LKQETNLTLKVCKPQAPQKLDPTL [P2K] | 3.06 |
| LCQETNLTLKVCKPQAPQKLDPTL [P2C] | 3.27 |
| LAQETNLTLKVCKPQAPQKLDPTL [P2A] | 3.84 |
| LLQETNLTLKVCKPQAPQKLDPTL [P2L] | 2.65 |
| LQQETNLTLKVCKPQAPQKLDPTL [P2Q] | 3.76 |
| LYQETNLTLKVCKPQAPQKLDPTL [P2Y] | 3.14 |
| LDQETNLTLKVCKPQAPQKLDPTL [P2D] | 4.3 |
| LNQETNLTLKVCKPQAPQKLDPTL [P2N] | 3.46 |
| LHQETNLTLKVCKPQAPQKLDPTL [P2H] | 3.5 |

| Variant | protein stability index |
| --- | --- |
| LRQETNLTLKVCKPQAPQKLDPTL [P2R] | 2.88 |
| LWQETNLTLKVCKPQAPQKLDPTL [P2W] | 2.16 |
| LFQETNLTLKVCKPQAPQKLDPTL [P2F] | 2.85 |
| LMQETNLTLKVCKPQAPQKLDPTL [P2M] | 2.23 |
| LPQETNETLKVCKPQAPQKLDPTL [L7E] | 4.79 |
| LPQETNCTLKVCKPQAPQKLDPTL [L7C] | 3.53 |
| LPQETNSTLKVCKPQAPQKLDPTL [L7S] | 4.35 |
| LPQETNFTLKVCKPQAPQKLDPTL [L7F] | 2.92 |
| LPQETNPTLKVCKPQAPQKLDPTL [L7P] | 4.42 |
| LPQETNGTLKVCKPQAPQKLDPTL [L7G] | 4.48 |
| LPQETNQTLKVCKPQAPQKLDPTL [L7Q] | 4.56 |
| LPQETNMTLKVCKPQAPQKLDPTL [L7M] | 4.25 |
| LPQETNHTLKVCKPQAPQKLDPTL [L7H] | 4.51 |
| LPQETNNTLKVCKPQAPQKLDPTL [L7N] | 4.66 |
| LPQETNITLKVCKPQAPQKLDPTL [L7I] | 3.4 |
| LPQETNTTLKVCKPQAPQKLDPTL [L7T] | 4.33 |
| LPQETNVTLKVCKPQAPQKLDPTL [L7V] | 4.21 |
| LPQETNDTLKVCKPQAPQKLDPTL [L7D] | 4.94 |
| LPQETNKTLKVCKPQAPQKLDPTL [L7K] | 4.61 |
| LPQETNATLKVCKPQAPQKLDPTL [L7A] | 4.25 |
| LPQETNYTLKVCKPQAPQKLDPTL [L7Y] | 3.89 |
| LPQETNRTLKVCKPQAPQKLDPTL [L7R] | 4.67 |
